Measured values as given in article PMC10925351 (bioRxiv, 2025).
Numbering of substitutions follows the chain as printed. Numbers in names are those of the source.

T1: Clb2 (wild-type), 6xHis-tagged (S. cerevisiae, UniProt P24869 1-491)
T1 sequence: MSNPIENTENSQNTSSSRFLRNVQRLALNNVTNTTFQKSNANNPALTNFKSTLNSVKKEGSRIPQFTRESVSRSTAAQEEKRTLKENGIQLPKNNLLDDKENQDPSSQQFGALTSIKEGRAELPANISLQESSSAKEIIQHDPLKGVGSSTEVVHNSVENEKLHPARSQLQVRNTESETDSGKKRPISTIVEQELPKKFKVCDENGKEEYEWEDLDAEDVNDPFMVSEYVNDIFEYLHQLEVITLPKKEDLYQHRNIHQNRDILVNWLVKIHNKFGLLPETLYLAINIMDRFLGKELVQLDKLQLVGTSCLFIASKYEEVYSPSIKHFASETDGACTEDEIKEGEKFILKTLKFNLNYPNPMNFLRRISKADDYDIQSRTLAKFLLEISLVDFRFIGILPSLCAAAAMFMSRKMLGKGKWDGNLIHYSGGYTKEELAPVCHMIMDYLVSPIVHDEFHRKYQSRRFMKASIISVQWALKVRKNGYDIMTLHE

T2: Clb2-pp mutant (R366A, R379A, K383A), 6xHis-tagged (S. cerevisiae, UniProt P24869 1-491, R366A | R379A | K383A)
T2 sequence: T1 sequence with R366A, R379A, K383A

B1: Cdk1 (Cdc28), T169-phosphorylated, from a GST-TEV-Cdk1 fusion (enzyme)
chain: not shown
modifications: phosphothreonine at T169 (by Cak1)
B2: Cks1 (wild-type) (natural protein)
chain: MYHHYHAFQGRKLTDQERARVLEFQDSIHYSPRYSDDNYEYRHVMLPKAMLKVIPSDYFNSEVGTLRILTEDEWRGLGITQSLGWEHYECHAPEPHILLFKRPLNYEAELRAATAAAQQQQQQQQQQQQQQQQHQTQSISNDMQVPPQIS
B3: Cks1 mutant (R33E, S82E, R102A) (natural protein)
chain: B2 chain with R33E, S82E, R102A

Key:
Experiment in all cases: reconstitution of a complex by mixing purified proteins
[1] = target: T1, Clb2 (wild-type), 6xHis-tagged
[2] = target: T2, Clb2-pp mutant (R366A, R379A, K383A), …
[3] = target: Clb2-Cdk1 complex (wild-type Clb2) (S. cerevisiae, UniProt P24869;P00546, phosphothreonine at T169 (by Cak1))
Chain of Clb2-Cdk1 complex (wild-type Clb2) (P00546 whole entry, one chain of several): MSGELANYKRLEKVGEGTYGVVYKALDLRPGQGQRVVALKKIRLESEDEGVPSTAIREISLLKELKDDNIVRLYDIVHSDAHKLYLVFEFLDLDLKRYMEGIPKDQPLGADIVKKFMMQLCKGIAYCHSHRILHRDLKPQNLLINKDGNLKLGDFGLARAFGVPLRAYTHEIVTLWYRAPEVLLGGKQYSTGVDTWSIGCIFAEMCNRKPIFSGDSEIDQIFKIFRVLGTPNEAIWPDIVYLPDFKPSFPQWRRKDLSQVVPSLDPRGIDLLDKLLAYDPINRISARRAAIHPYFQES

Row | Binder | binding result [1] | binding result [2] | binding result [3]
1 | B1 | binds | binds | –
2 | B2 | – | – | binds
3 | B3 | – | – | binds
